In a protein production outcome set (Wang et al. 2014):

Test: label from the status in PepcDB records

Sequence | protein production
AAPPAPAAKPGSPKKRGKTEVNESLLTPRFYTTDFDEMEQLFNAEINKQLNQDEFDALLQEFKTDYNQTHFIRNPEFKEAADKMQGPLRQIFVEFLERSCTAEFSGFLLYKELGRRLKKTNPVVAEIFSLMSRDEARHAGFLNKGLSDFNLALDLGFLTKARKYTFFKPKFIFYATYLSEKIGYWRYITIFRHLKANPEYQVYPIFKYFENWCQDENRHGDFFSALLKAQPQFLNDWKAKLWSRFFCLSVYITMYLNDCQRSAFYEGIGLNTKEFDMHVIYETNRTTARIFPAVPDVENPEFKRKLDRMVDINLKIISIGESNDLPLVKNLKRVPLIAQLVSEIIAAYLMPPIESGSVDFAEFEPKLVY | failed
MEEHNANPLRFETNPYHNIVIKDRKVMELTGVKQIDSFDANEFLLETAQGWLMIQGKDLKLGKLDTERGDVIINGIIEALSYVSNKKGTAKETMMSKLFR | failed
MIIQIVLWDCYTVPYFCFEKRRFMEELKFEELELCPEILKAVKHMGFEEASPIQSKAIPVIMSGKDVIGQAQTGTGKTAAFGIPLLEKIDPKNKKLQAIVLCPTRELAIQVAEEIRNLAKYMHGIKVLPIYGGQEIVKQIRSLKSGTQLVIGTPGRVMDHMRRKTMKMDHVHTIVLDEADEMLNMGFREDIETILEGIPQEHQTVLFSATMPKAILEITKQFQTNAELVKVTKKELTVPNIEQFYYEVKPKNKEEVLSRLLDIYTPKLSVVFCNTKKQVDLLVNGLLGRGYFAAGLHGDMKQAQRDRVMQGFRSGKTDILVCTDVAARGIDVDDVEAVFNYDLPQDDEYYVHRIGRTGRAGRVGRSFSFVSGREVYKLKEIQRYCKTKIYAQKVPSLNDVANTKMENVLEEIEQIIENEDLTKFLQIIEERVNESDYTAMDLAAAFLKYCSGQQETEEKDMEFGDTGAEEAGMVRLFINIGKKNKAKPGDIVGAIAGESGIPGKLIGTIDMFDKYTFVEVPREYARDVLNAMNHTKIKGKSVAVEPANQK | failed
MFYTIEELVQQADRDYQGNIAELMIATETELSGRDRSEILELMTRNLEVMKDSVQTGLSPEKSPTGLTGGDAAKLDAYIKRGKTLADSAVLGAARNAMAVNESNAKMGLVCATPTAGSAGCLPAVLTVAIEKLGLNESQQLDFLFTAGAFGLVIANKASISGAEGGCQAEVGSASAMAAAAITMAAGGTPFQASQAICFVLKNMLGLICDPVAGLVEVPCVKRNAMGASFALVAADMALAGITSAIPVDQVVDAMYQVGSAMPTAFRETAEGGLAATPKGKALAKEIFG | not failed
MLVQKNEAFLWLHFYLISNFIVVIMQMFILVMYYLIIVDHSFVELNEQVNPLFSFLLFVFHSDLSFFPVLVQLIF | failed
MEKQNLKNTEVNLIYGVDDDLDLPKKVLFGLQHIFAAFGGIIVVPLVIATSLGFDSKVTTALISASILGSGLATIIQAKGVGKVGARVACIMGTDFTFVSPAISVGSVLGLPGIIGATILGSLFEVILSFFIKPLMKFFPPLVTGTVVALIGLTLLPVSIDWAAGGAGSANYASLENLAVAMFVLVITLLLNNYGKGMISSASILIGIVVGYIVCIPLGLVDFTPVKEASWLSFPKILEFGVTFDAKAVMAFIPAYFVATIGTVGCLKAIGETSNIDIGDKRVAAGVLSDGVGSALGGLVGSCPNTSFSQNIGIISLTKVASRHVAVMAGILLVILGFLPKVAAIITGIPNPVLGGVGIMMFGTVAAAGIRTLSNIKLTERNLLIIAISMGLGLGVTFRPDVIHNLPEAIRMIFSSGISTGTIAALILNAVLKESPTSMEFENMYDEETKAS | failed
MSLTDTKVKNAKPSEKVVKLTDGFGLYLLVHTNGSKYWQLGYRFEGKQKVFSIGVYPAVSLANARQRRDEAKKLLAAGVDPSAKKRADNKSVQEKRNNTRAFKTVAKSWFATKTTWSEDYQRSVWTRLETYLFPDIGNKDIAELDTGDLLVPIKKIEKLGYLEIAMRVKQYATAIMRYAVQQKMIRFNPAYDLEGAVQKPQTEHRPAIELEEIPTLLERIEGYKGRSRLTQLAIKLNLLIFIRSSELRFARWSEIDFKSGLWVIPEQREAIKGIKHSDRGAKMRRKHYVPLCEQALVILGELKDLTYDVNGDDGFILTGCYDAMKPMSENTINKALRKMGYDTKTDLCGHGFRTLACSALIESGIWPEDVVELQMSHMEKNNVRAAYTHKAKHLEQRRLMLQWWADFLDANGSGMVRPFEFAQGATQY | failed
MLTSFKLHSLKPYTLKSSMILEIITYILCFFSMIIAFVDNTFSIKIYNITAIVCLLSLILRGRQENYNIKNLILPLSIFLIGLLDLIWYSAFKVDNSPFRATYHSYLNTAKIFIFGSFIVFLTLTSQLKSKKESVLYTLYSLSFLIAGYAMYINSIHENDRISFGVGTATGAAYSTMLIGIVSGVAILYTKKNHPFLFLLNSCAVLYVLALTQTRATLLLFPIICVAALIAYYNKSPKKFTSSIVLLIAILASIVIIFNKPIQNRYNEALNDLNSYTNANSVTSLGARLAMYEIGLNIFIKSPFSFRSAESRAESMNLLVAEHNRLRGALEFSNVHLHNEIIEAGSLKGLMGIFSTLFLYFSLFYIAYKKRALGLLILTLGIVGIGLSDVIIWARSIPIIIISAIVLLLVINNRNNTIN | failed
MAETDPKTVQDLTSVVQTLLQQMQDKFQTMSDQIIGRIDDMSSRIDDLEKNIADLMTQAGVEELESENKIPATQKS | failed
MLVLYRASIRFKLRKNKNSFDSSNYFYGGNNICIINTKWGKHSGIGGYAEIIDTLVGNFTNISSWAKIGIRDHIHTNFLICDFVYKDNDHIMPPGISSFEDYWVKIGNDVWVGTNVTILRGVEVGDGAVIAAGSVVTKSIPPYAIVGGNPAKFIKWRFPFEVREKLLEIKWWDWDDDLIKEKKDYLQNLVGFDMDKYKIEYRKRKEDLFYLEHHHHHH | not failed
MARPAYRLLAYSLWDLIPIAMAVAHFAFVLWLVLDFHALSWWVILPAALLYAVSLSWSINSISHNQIHNAYFTPGWMNRGFDLLLSVTIGFSQTLYRDIHNRHHRGNSDLPDANGKTVDPLSIYLHGKDGQPDNPWAYTFLSFFRDDPKEIYQEMQRKRPDDARWVKVEIGVTVAFYLALALYDWHAVLVLLPFWYLGQSLSSLNGYYEHLGGNPDLPIAWGVSSYSPLYNLIWMNNGYHAEHHYRPKMHWTKVKAFHREIREQQRAAGVKVIPVSHGLGFLVAHRKV | failed
MAVRVCCHAPPGVSNHLFTFCAGNLTTGFSGGSVTSQKGGAAGLPTCSRRCPRGCLPGSDPLPRHPRRYAPPVTPPVTPPTTPAPRSRARMLELVFPKDTNYHGTAFGGWVLALMDKAASVAAVRHAGGNVVTARMDGVDFHVPIRVGDAVALDARVIRVGRSSMTIRVDVYRENMASGEQQLATGGLFTFVALGEDGKPRPVPPLPEGSTDSEQPDYEARP | failed
FLNSVLNFSLFLLNAHDSYLEVMRNRDTLSRMISSLEEVLDVSRRAELIEKTLHYLKDMFPGIVLSSVSLLEDGKIKTFFLKNGQIEVVNLKRGIVVKAFETKRDLFVNDVRDFPEFYDVTNGRTRSAAAIFFEYENTPLVLEIEKDSEITEYELSSLKMMARILAIFFSR | failed
MTVTAPNALNFECETGNYHTFCPISCVAWLYQKIEDSFFLVIGTKTCGYFLQNAMGVMIFAEPRYAMAELEEGDISAQLNDYEELKRLCLEIKRDRNPSVIVWIGTCTTEIIKMDLEGLAPKLEAEIGIPIVVARANGLDYAFTQGEDTVLAAMAARCPTSTAISDPEERNPIQRLLNFGKKKEEVQAQSSQYHPHPPLVLFGSLPDPVVTQLTLELKKQGIKVSGWLPAKRYTELPVIDEGYYVAGVNPFLSRTATTLIRRRKCQLITAPFPIGPDGTRTWIEQICATFGIQPQGLAEREAETWQKLSDYLELVRGKSVFFMGDNLLEISLARFLIRCGMRVLEIGIPYMDKRYQAAELALLSQTCAEMGHPLPTIVEKPDNYNQLQRIKALQPDLVITGMAHANPLEARGISTKWSVEFTFAQIHGFGNARDILELVTRPLRRNQALAGLGWQKLVAHLEHHHHHH | failed
MTAVETKKQYLTVFKEDGIAEIHLHINKSNSYDLEFYKEFNAAIDDIRFDPDIKVVIVMSDVPKFFSAGADINFLRSADPRFKTQFCLFCNETLDKIARSPQVYIACLEGHTVGGGLEMALACDLRFMGDEAGKIGLPEVSLGVLAGTGGTQRLARLIGYSRALDMNITGETITPQEALEIGLVNRVFPQAETRERTREYARKLANSATYAVSNIKLAIMNGKEMPLNVAIRYEGELQNLLFRSEDAKEGLSAFLEKRQPNWKGI | not failed
MNREELFDVTVIGGGPAGLYSAFYSGLREMKTKIIEFQPQLGGKIHVYPEKMIWDIGGLLPVTGEKLIEQLVQQGLTFQPEVVLNTKIESIIRNKDGIFTLKTSTGEEHFSKTVIVATGSGILNPQKLSIEGAERFEVSNLNYTVKSLKRFKNKTVIISGGGNSAIDWANELEPIAKKVYLTYRKEELSGHEAQVKQLMNSSAECFFNTSITTLIAGDNHEAIEYVELTNHETGEVSQLAIDEVIINHGYERDITLLENSELDVAIIDNYYIAGNANSESSVDGLYAAGDILKHEGKLHLIAGAFQDAGNAVNKAKQFIQPDASEYGMVSSHNEVFKKRNRELIKQMMK | failed
MSEQTSQYLSDSYVEETRFGFWFLRSHTWQHHVLRVAINDLRSLFDGELPRHPVLLDAGCGQGKSFQYLRQVFAPQRLIGLDADPHSLKLSAEEARRQQMQVELIGSDCATLELADASVDLLFCHQTFHHLVEQEKALAEFYRVLKPGGYLLFAESTEAYIDTWVIRWLFRHPMHVQKSAAQYLQMIRQQGFEFGPQNVSYPYLWWSRAKDFGLLERFGLRQPPPVGQREETLVNVVARKPLNPTVVEEGLPA | failed
MLLEPLKQLKQADARLNMTQGVLEGVVGEELGVLPGMDSIFSMLELERLVGFFRQATRKNHKGKPFDVIIYDGISTEETLRMIGLSSKTRLYAKYLRSLAEKTDLGRLTSPSIMRFVDESMNINSNKSPFDGMTSPAMWDTLERFLETGASAWRDPERFRSFLVMDPNNPMSVKAALRYWGCTVQAGSHVSGAFAISSSHLTSQIPKADFVPLPFASASVPFTITGLDWDKILLDQANSSIRELLSETVSHGTSLTQTVMFDTAKKLVTLFMPGFEKSEIKLYQYRGGSELLIEAGDQRRVIHLPSQIQGKVGGAKFVDRSLIVTMR | failed
MRPSAEALRDRPRCGIRPSMDYYDLGRHGRPVTTSSPEAQRWFDRGLVWTYAFHHEEAVACFEAAVAADPDCAMAHWGIAHALGPNYNKPWDAFDTEELTRTVDRTHAAVERAHALAGRATPAERALIDALRARYPQASAVEDCSVWNAPYADGMRAVYELAPDDLDVAALYADALMNLTPWQLWDLRTGLPAEGARTLAAKEVLDRALAAEGGRDHPGVVHLYIHLMEMSPTPEAALAVADRLRGLVPDAGHLLHMPSHLEVLCGDYRRVVSDNEAAIAADEKCLARSGAMNFYTLYRAHNHHFKIYGAMFLGRYEVALDAAARLEASVPEALLRVESPPMADWLEAFLAMRVHVLIRFGRWTDILALPLPDDPRLYCVTTAMLHYARGVALSATGRVAEAETERDLFRAAVDRVPGSRTLFNNTCADILAIASAMLDGELEYRRGNHTAAFAALERSVELDDNLPYDEPWGWMQPTRHAYGALLLEQGRTAEAEAVYRADLGLDDTLPRPLQHPNNVWALHGLHECLVRLGRAGEVRIVAQQLRFAAALADVPVEASCFCRLGTAPAAGGDAGCCATGQ | failed
MKPVKVGICGLGTVGGGTFNVLERNAEEIARRAGRGIEVAQIAARRPNPKCDTGATPITADIFDVACNPEIDVVVELIGGYTLAHELVLKAIENGKHVVTANKALIAVHGNEIFAKAREKGVIVAFEAAVAGGIPVIKAIREGLSANRINWLAGIINGTGNFILSEMREKGRTFPDVLAEAQALGYAEADPTFDVEGIDAAHKLTILASIAFGIPLQFDKAYTEGISKLTSADVNYADALGYRIKHLGVARRTESGFELRVHPTLIPSDRLIANVNGVMNAVMVNGDAVGSTLYYGAGAGMEPTASSVVADLVDVVRAMTSDPENRVPHLAFQPDALSDHPILPIEACESAYYLRIQAKDHPGVLAQVATILSERGINIESIMQKEAEEQDGLVPMILVTHRVIEQRINDAIAALEALEGVSGPVVRIRVEQL | not failed
